# In paper PMC7467671:
# Columns and labels:
# Assay in all cases: potentiometry
# [1] = biological target: Glu2 (position 2, ----DEHGTAV); details: 298 K, 0.1 M NaClO4
# [2] = biological target: Lys10 (position 10, TAVMLK-----); details: 298 K, 0.1 M NaClO4
# [3] = biological target: Asp1 (position 1, -----DEHGTA); details: 298 K; 0.1 M NaClO4; none (4 mM HClO4, titrated with 0.1 M carbonate-free NaOH); metal-free peptide, largely unstructured
# [4] = biological target: His3 (position 3, ---DEHGTAVM); details: 298 K, 0.1 M NaClO4
# [5] = biological target: Nterm1 (position 1, -----DEHGTA); details: 298 K, 0.1 M NaClO4
# [6] = biological target: Lys7 (position 7, HMVLAKGED--); details: 298 K, 0.1 M NaClO4
# [7] = biological target: Asp10 (position 10, LAKGED-----); details: 298 K; 0.1 M NaClO4; none (4 mM HClO4, titrated with 0.1 M carbonate-free NaOH); metal-free peptide, largely unstructured
# [8] = biological target: Nterm1 (position 1, -----THMVLA); details: 298 K, 0.1 M NaClO4
# [9] = biological target: His2 (position 2, ----THMVLAK); details: 298 K, 0.1 M NaClO4
# [10] = biological target: Glu9 (position 9, VLAKGED----); details: 298 K, 0.1 M NaClO4
# [11] = biological target: Asp8 (position 8, AVMLKDEH---); details: 298 K; 0.1 M NaClO4; none (4 mM HClO4, titrated with 0.1 M carbonate-free NaOH); metal-free peptide, largely unstructured
# [12] = biological target: His10 (position 10, MLKDEH-----); details: 298 K, 0.1 M NaClO4
# [13] = biological target: Nterm1 (position 1, -----GTAVML); details: 298 K, 0.1 M NaClO4
# Lys7 (position 7, …--) = details: 298 K, 0.1 M NaClO4
# [14] = biological target: Glu9 (position 9, VMLKDEH----); details: 298 K; 0.1 M NaClO4; none (4 mM HClO4, titrated with 0.1 M carbonate-free NaOH); metal-free peptide, largely unstructured
# Asp5 (position 5, -…) = details: 298 K; 0.1 M NaClO4; none (4 mM HClO4, titrated with 0.1 M carbonate-free NaOH); metal-free peptide, largely unstructured
# Glu6 (position 6, …-) = details: 298 K; 0.1 M NaClO4; none (4 mM HClO4, titrated with 0.1 M carbonate-free NaOH); metal-free peptide, largely unstructured
# His7 (position 7, …--) = details: 298 K, 0.1 M NaClO4
# [15] = biological target: Lys9 (position 9, LDEHAKG----); details: 298 K, 0.1 M NaClO4
# [16] = biological target: Nterm1 (position 1, -----TMVLDE); details: 298 K, 0.1 M NaClO4
# [17] = biological target: Nterm1 (position 1, -----DEHGGG); details: 298 K, 0.1 M NaClO4
# [18] = biological target: Glu2 (position 2, ----DEHGGGG); details: 298 K; 0.1 M NaClO4; none (4 mM HClO4, titrated with 0.1 M carbonate-free NaOH); metal-free peptide, largely unstructured
# [19] = biological target: His3 (position 3, ---DEHGGGGD); details: 298 K, 0.1 M NaClO4
# [20] = biological target: Glu9 (position 9, GGGGDEH----); details: 298 K; 0.1 M NaClO4; none (4 mM HClO4, titrated with 0.1 M carbonate-free NaOH); metal-free peptide, largely unstructured
# [21] = biological target: His10 (position 10, GGGDEH-----); details: 298 K, 0.1 M NaClO4
# [22] = biological target: Asp1 (position 1, -----DEHGGG); details: 298 K; 0.1 M NaClO4; none (4 mM HClO4, titrated with 0.1 M carbonate-free NaOH); metal-free peptide, largely unstructured
# [23] = biological target: Asp8 (position 8, HGGGGDEH---); details: 298 K; 0.1 M NaClO4; none (4 mM HClO4, titrated with 0.1 M carbonate-free NaOH); metal-free peptide, largely unstructured
# [24] = none (4 mM HClO4, titrated with 0.1 M carbonate-free NaOH), metal-free peptide, largely unstructured
# [25] = none (4 mM HClO4, titrated with NaOH), Cu(II)-bound, Cu(II):peptide 1:1.1, [Cu(II)]tot = 1 mM
# [26] = none (4 mM HClO4, titrated with NaOH), Mn(II)-bound, Mn(II):peptide 1:1.1, [Mn(II)]tot = 0.5 mM
protein,measurement,setting,value
DEHGTAVMLK,pKa,[1]; [24],4.20
same,pKa,[1]; [25],4.17
same,pKa,[2]; [24],9.62(3)
same,pKa,[2]; [25],9.00
same,pKa,[2]; [26],8.96
same,pKa,[3],3.06
same,pKa,[4]; [24],6.47
same,pKa,[4]; [26],6.11
same,pKa,[5]; [24],7.85
same,pKa,[5]; [26],7.5
THMVLAKGED [DP2 decapeptide (THMVLAKGED) (synthetic construct (scrambled DP1; Deinococcus radiodurans-inspired))],pKa,[6]; [24],9.86(1)
same,pKa,[6]; [25],9.87
same,pKa,[6]; [26],8.29
same,pKa,[7],3.89
same,pKa,[8]; [24],7.01
same,pKa,[8]; [26],6.59
same,pKa,[9]; [24],5.91
same,pKa,[9]; [26],5.40
same,pKa,[10]; [24],4.70
same,pKa,[10]; [25],4.91
GTAVMLKDEH [Term-DEH decapeptide (GTAVMLKDEH) (synthetic construct (Deinococcus radiodurans-inspired))],pKa,[11],3.46
same,pKa,[12]; [24],7.02
same,pKa,[12]; [26],7.08
same,pKa,[13]; [24],8.16
same,pKa,[13]; [25],5.34
same,pKa,[13]; [26],7.79
same,pKa,"Lys7 (position 7, …--); [24]",10.82(1)
same,pKa,"Lys7 (position 7, …--); [25]",11.05
same,pKa,[14],4.31
TMVLDEHAKG [Mid-DEH decapeptide (TMVLDEHAKG) (synthetic construct (Deinococcus radiodurans-inspired))],pKa,"Asp5 (position 5, -…)",3.55
same,pKa,"Glu6 (position 6, …-)",4.06
same,pKa,"His7 (position 7, …--); [24]",6.29
same,pKa,"His7 (position 7, …--); [26]",6.42
same,pKa,[15]; [24],10.52(1)
same,pKa,[15]; [25],11.20
same,pKa,[15]; [26],9.8
same,pKa,[16]; [24],7.33
same,pKa,[16]; [25],4.59
same,pKa,[16]; [26],7.21
DEHGGGGDEH [Bis-DEH decapeptide (DEHGGGGDEH) (synthetic construct (Deinococcus radiodurans-inspired))],pKa,[17]; [24],8.41
same,pKa,[17]; [26],7.82
same,pKa,[18],4.05
same,pKa,[19]; [24],6.67
same,pKa,[19]; [26],7.25
same,pKa,[20],4.69
same,pKa,[21]; [24],7.41
same,pKa,[21]; [25],7.73
same,pKa,[21]; [26],6.37
same,pKa,[22],2.67
same,pKa,[23],3.36
